# US20240010750A1 (Bayer, published 2024)
# Positions count from the first letter of the chain named. Where two headings read alike, the source gives them in different places.
# T1: human alpha2-Antiplasmin (human, UniProt P08697 40-491)
# T1 construct: Bought (antibodies online, ABIN2544306); also called human A2AP; a2AP
# T1 sequence: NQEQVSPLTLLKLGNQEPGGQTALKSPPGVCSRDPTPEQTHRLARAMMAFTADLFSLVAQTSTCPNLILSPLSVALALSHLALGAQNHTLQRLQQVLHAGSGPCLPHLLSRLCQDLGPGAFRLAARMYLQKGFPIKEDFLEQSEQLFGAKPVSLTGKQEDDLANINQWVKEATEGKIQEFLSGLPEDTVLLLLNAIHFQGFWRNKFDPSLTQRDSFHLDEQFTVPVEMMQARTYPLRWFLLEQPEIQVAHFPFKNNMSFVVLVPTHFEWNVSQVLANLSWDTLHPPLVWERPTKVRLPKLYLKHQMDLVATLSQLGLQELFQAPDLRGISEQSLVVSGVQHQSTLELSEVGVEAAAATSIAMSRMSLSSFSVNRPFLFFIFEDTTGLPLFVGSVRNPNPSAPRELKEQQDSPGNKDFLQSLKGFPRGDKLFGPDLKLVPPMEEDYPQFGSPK
# T2: rabbit alpha2-Antiplasmin (rabbit (Oryctolagus cuniculus))
# T2 construct: Made in house in HEK293 cells, purified by Ni-IMAC and SEC (a His tag is implied but not described); also called rabbit A2AP; Oryctolagus cuniculus A2AP
# T2 chain: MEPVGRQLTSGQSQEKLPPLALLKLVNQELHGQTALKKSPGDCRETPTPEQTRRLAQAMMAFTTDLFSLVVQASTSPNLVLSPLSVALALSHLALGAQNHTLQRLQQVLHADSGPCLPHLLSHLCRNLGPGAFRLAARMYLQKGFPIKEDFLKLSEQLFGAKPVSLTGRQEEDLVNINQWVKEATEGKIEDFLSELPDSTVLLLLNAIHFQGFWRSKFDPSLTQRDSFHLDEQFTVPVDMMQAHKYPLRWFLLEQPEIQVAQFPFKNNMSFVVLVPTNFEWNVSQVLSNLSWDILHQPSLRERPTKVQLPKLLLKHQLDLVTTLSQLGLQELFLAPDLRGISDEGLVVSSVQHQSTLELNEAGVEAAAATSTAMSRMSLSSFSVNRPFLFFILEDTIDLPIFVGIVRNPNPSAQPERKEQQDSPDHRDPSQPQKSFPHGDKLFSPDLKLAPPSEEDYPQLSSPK
# T3: cynomolgus alpha2-Antiplasmin (cynomolgus (Macaca fascicularis), UniProt P08697 28-491 (human entry))
# T3 construct: Made in house in the same way as the rabbit protein; also called cynomolgus A2AP; Macaca fascicularis A2AP
# T3 chain: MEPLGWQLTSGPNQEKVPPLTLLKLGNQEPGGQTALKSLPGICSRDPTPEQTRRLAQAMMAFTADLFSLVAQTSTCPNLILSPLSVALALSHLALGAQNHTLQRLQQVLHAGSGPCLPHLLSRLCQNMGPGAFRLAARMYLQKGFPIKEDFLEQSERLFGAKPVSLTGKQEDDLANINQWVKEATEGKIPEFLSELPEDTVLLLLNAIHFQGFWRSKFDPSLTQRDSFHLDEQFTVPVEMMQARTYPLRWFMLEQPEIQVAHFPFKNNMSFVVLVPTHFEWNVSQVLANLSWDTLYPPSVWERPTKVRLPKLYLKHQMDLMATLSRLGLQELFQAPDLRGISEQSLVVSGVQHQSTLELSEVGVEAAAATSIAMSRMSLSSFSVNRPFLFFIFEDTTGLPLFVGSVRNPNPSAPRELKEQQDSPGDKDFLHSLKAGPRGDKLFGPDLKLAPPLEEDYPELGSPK
# B1: TPP-14305 hIgG1 (antibody, V domains shown)
# VH: EVQLLESGGGLVQPGGSLRLSCAASGFTFDDYAMSWVRQAPGKGLEWVSAIGTGGGTYYADSVKGRFTISRDNSKNTLYLQMNSLRAEDTAVYYCAREGYDSSGYYHLDYWGQGTLVTVSS
# VL: QSVLTQPPSASGTPGQRVTISCTGSSSNIGATYDVHWYQQLPGTAPKLLIYSNNQRPSGVPDRFSGSKSGTSASLAISGLRSEDEADYYCWAWDDSLSGWVFGGGTKLTVLG
# B2: TPP-17041 hIgG1 (antibody, V domains shown)
# VH: B1 VH with D30S
# VL: B1 VL with W91A, D95W
# notes: Germline variant of TPP-14308
# B3: TPP-14308 hIgG1 (antibody, V domains shown)
# VH: B1 VH
# VL: B1 VL with W91A, D95W
# notes: starting point of the germlining
# B4: TPP-17051 hIgG1 (antibody, V domains shown)
# VH: B1 VH with D31S, G56S
# VL: B1 VL with W91A, D95W
# notes: Germline variant of TPP-14308
# B5: TPP-14314 hIgG1 (antibody, V domains shown)
# VH: B1 VH with G99Y, D109V
# VL: QSVLTQPPSASGTPGQRVTISCTGSSSNIGATYDVHWYQQLPGTAPKLLIYSNNQRPSGVPDRFSGSKSGTSASLAISGLRSEDEADYYCAAWDVSLSGWVFGGGTKLTVL
# notes: Human IgG1 lambda
# Experiments:
# human alpha2-Antiplasmin [1] = biological target: T1, human alpha2-Antiplasmin; experiment: ELISA, coated antigen, 2nd exp.
# Method: (§1) A standard ELISA format was used for analyzing the binding affinity of Fabs of this invention to human and rabbit alpha-2-Antiplasmin, respectively. Antigens were coated to black 384 well Maxisorp microtiter plates (Nunc; catalogue number 460518), diluted to a concentration of 1 μg/ml in 1× Coating Buffer (Candor Bioscience; catalogue number 121125). Plates were incubated overnight at 4° C. After overnight incubation, plates were washed 2× with 50 μl/well using PBS+0.05% Tween 20. Following this, 50 μl/well of blocking buffer (Smart Block; Candor Bioscience; catalogue number 113500) was added and the plates were incubated for 1 hour at room temperature. Afterwards, plates were washed for 3× using […] PBS+0.05% Tween 20 buffer. Fabs of this invention were added at different concentrations in a final volume of 30 μl/well. Plates were incubated for 1 hour at room temperature. Following this incubation step, plates were washed for 3× using 50 μl/well of a PBS+0.05% Tween 20 buffer. For the detection of bound Fabs and full-length antibodies, the anti-Human Lambda Light Chains (Bound and Free)—Peroxidase antibody (Sigma; catalogue number A5175) was diluted by the factor of 1:10.000 in 10% Blocking Buffer. 30 μl/well of this diluted detection antibody was added and plates are incubated for 1 hour at room temperature. Following this incubation step, plates were washed for 3× using 50 μl/well of a PBS+0.05% Tween 20 buffer. As substrate, a mixture of 30 μl/well of 1:1000 diluted Amplex red (Invitrogen; catalogue number 12222; stock solution 10 mM in DMSO) and 1:10.000 of Hydrogen peroxide (Merck; catalogue number 107209; 30% stock solution) was added and the plates incubated for minutes in the dark.
# (§2) For measurement, the Infinite f500 reader (Tecan) was used. Measurement mode: Fluorescence; Top reading; Ex 535 nm; Em 590 nm.
# (§3) According to the methods described in Example 3 and Example 4, antibodies TPP-14323, TPP-14318, TPP-14314, TPP-14313, TPP-14308, TPP-14305, TPP-14303, TPP-14298, and TPP-14293 were tested for their ability to bind to and to block the activity of human alpha2-Antiplasmin in a dose-dependent manner. For each antibody, one dose response curve from two to three independent experiments performed in quadruplicate is shown as example in FIG. 7.1 to FIG. 7.18. (see Table 3.3)
# human Plasmin = human Plasmin (human, UniProt P00747 97-580; P00747 581-810, limits assumed); experiment: cell-based or functional assay
# human Plasmin, sequence (P00747 97-580 limits assumed, chain 1 of 2): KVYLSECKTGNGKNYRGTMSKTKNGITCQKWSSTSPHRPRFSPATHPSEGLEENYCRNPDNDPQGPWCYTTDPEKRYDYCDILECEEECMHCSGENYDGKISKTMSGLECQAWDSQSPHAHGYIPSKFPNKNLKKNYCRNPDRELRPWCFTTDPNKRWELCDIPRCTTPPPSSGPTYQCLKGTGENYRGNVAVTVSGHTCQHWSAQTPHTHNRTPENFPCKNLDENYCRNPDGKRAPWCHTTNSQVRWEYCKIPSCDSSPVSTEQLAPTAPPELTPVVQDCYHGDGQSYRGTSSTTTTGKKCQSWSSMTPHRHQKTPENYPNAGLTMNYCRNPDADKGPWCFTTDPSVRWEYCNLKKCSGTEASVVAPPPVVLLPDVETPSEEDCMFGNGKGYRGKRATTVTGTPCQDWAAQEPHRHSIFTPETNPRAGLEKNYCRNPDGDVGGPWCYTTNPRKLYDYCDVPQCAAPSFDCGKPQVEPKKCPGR
# human Plasmin, sequence (P00747 581-810 limits assumed, chain 2 of 2): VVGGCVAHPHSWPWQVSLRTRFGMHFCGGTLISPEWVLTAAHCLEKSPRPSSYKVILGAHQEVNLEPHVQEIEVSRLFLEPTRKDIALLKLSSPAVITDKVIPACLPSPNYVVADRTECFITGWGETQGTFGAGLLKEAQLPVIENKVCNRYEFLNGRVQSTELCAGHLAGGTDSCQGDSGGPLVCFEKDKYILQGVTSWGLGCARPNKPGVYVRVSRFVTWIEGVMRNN
# human alpha2-Antiplasmin [2] = biological target: T1, human alpha2-Antiplasmin; experiment: ELISA, coated antigen, 1st exp.
# Method: as §1, §2, §3
# human alpha2-Antiplasmin [3] = biological target: T1, human alpha2-Antiplasmin; experiment: cell-based or functional assay
# human alpha2-Antiplasmin [4] = biological target: T1, human alpha2-Antiplasmin; experiment: ELISA, coated antigen, 3rd exp.
# Method: as §1, §2, §3
# human alpha2-Antiplasmin [5] = biological target: T1, human alpha2-Antiplasmin; experiment: cell-based or functional assay; remark: listed apart in the source
# human alpha2-Antiplasmin [6] = biological target: T1, human alpha2-Antiplasmin; experiment: cell-based or functional assay; remark: listed apart in the source
# human alpha2-Antiplasmin [7] = biological target: T1, human alpha2-Antiplasmin; experiment: ELISA, coated antigen, quantified unpurified antibody, 2nd exp.
# human alpha2-Antiplasmin [8] = biological target: T1, human alpha2-Antiplasmin; experiment: cell-based or functional assay; remark: listed apart in the source
# human alpha2-Antiplasmin [9] = biological target: T1, human alpha2-Antiplasmin; experiment: cell-based or functional assay; remark: listed apart in the source
# human alpha2-Antiplasmin [10] = biological target: T1, human alpha2-Antiplasmin; experiment: ELISA, coated antigen, quantified unpurified antibody, 1st exp.
# human alpha2-Antiplasmin [11] = biological target: T1, human alpha2-Antiplasmin; experiment: SPR Biacore T200, antibody captured on protein G chip, A2AP as analyte, 25 C
# Method: (§4) Binding assays were performed on a Biacore T200 instrument at 25° C. with a protein G sensor chip and assay buffer HBS-EP+. Antibodies were captured to ˜150 RU and analytes were used at concentrations between 1.56 and 200 nM for full kinetics. As interaction partner, alpha2-Antiplasmin from human, cynomolgus and rabbit was used. Regeneration was performed with glycine-HCl pH 1.5. Kinetic parameters were derived by fitting experimental sensorgrams to a 1:1 Langmuir binding model.
# [12] = biological target: T2, rabbit alpha2-Antiplasmin; experiment: as above
# Method: as §4
# [13] = biological target: T3, cynomolgus alpha2-Antiplasmin; experiment: as above
# Method: as §4
# human alpha2-Antiplasmin [14] = biological target: T1, human alpha2-Antiplasmin; experiment: cell-based or functional assay; remark: listed apart in the source
# human alpha2-Antiplasmin [15] = biological target: T1, human alpha2-Antiplasmin; experiment: ELISA, coated antigen, quantified unpurified antibody, 3rd exp.
# Method: as §1, §2
# human alpha2-Antiplasmin [16] = biological target: T1, human alpha2-Antiplasmin; experiment: ELISA (Example 3), human alpha2-Antiplasmin coated, RFU
# Method: as §1, with “As substrate, a mixture of 30 μl/well of 1:1000 diluted Amplex red (Invitrogen; catalogue number 12222; stock solution 10 mM in DMSO) and 1:10.000 of Hydrogen peroxide (Merck; catalogue number 107209; 30% stock solution) was added and the plates incubated for minutes in the dark.” left out
# as §2
# According to the method described in Example 3, these 12 antibodies were tested for ability to bind human and rabbit alpha2-Antiplasmin in a dose-dependent manner. Data generated were analyzed using the GraphPadPrism software. The binding activities of the antibodies were calculated as EC50 values. […]
Binder,EC50 (human alpha2-Antiplasmin [1]) [nM],"IC50 [M], inhibition of plasmin proteolytic activity (human Plasmin) [M]",EC50 (human alpha2-Antiplasmin [2]) [nM],EC50 (human alpha2-Antiplasmin [4]) [nM],"function blocking activity [IC50 M], 1st exp. (human alpha2-Antiplasmin [5]) [nM]","function blocking activity [IC50 M], 2nd exp. (human alpha2-Antiplasmin [5]) [nM]","function blocking activity [IC50 M], 3rd exp. (human alpha2-Antiplasmin [5]) [nM]","IC50, A2AP function blocking assay (Example 10) (human alpha2-Antiplasmin [6]) [nM]",EC50 (human alpha2-Antiplasmin [7]) [nM],"function blocking activity [IC50 M], 1st exp. (human alpha2-Antiplasmin [9]) [nM]","function blocking activity [IC50 M], 2nd exp. (human alpha2-Antiplasmin [9]) [nM]",EC50 (human alpha2-Antiplasmin [10]) [nM],Kd (human alpha2-Antiplasmin [11]) [nM],Kd [12] [nM],Kd [13] [nM],further results
B1,16,> 2e-06,15,16,64,69,66,,,,,,,,,"EC50 (read off the curve); function blocking assay (Example 4), RFU of plasmin substrate cleavage (human alpha2-Antiplasmin [3]): ~60 nM"
B2,,> 1e-05,,,,,,0.64,0.23,0.56,0.69,0.19,11,18,7.6,"EC50 (read off the curve); function blocking assay (Example 4), RFU of plasmin substrate cleavage (human alpha2-Antiplasmin [8]): ~0.5 nM"
B3,61,> 5e-06,5.7,60,2.4,30,24,,,,,,3.9,7.8,3.1,"EC50 (read off the curve); function blocking assay (Example 4), RFU of plasmin substrate cleavage; comparator curve [same curve in 8.4, D00008 8.6, 8.8, D00009 8.10, 8.12] (human alpha2-Antiplasmin [8]): ~2 nM; EC50 (read off the curve); function blocking assay (Example 4), RFU of plasmin substrate cleavage (human alpha2-Antiplasmin [14]): ~2 nM"
B4,,> 1e-05,,,,,,0.33,0.16,0.33,0.44,0.11,18,17,13,EC50 (human alpha2-Antiplasmin [15]): 0.22 nM
B5,82,> 2e-06,8.1,84,68,73,69,,,,,,,,,EC50 (read off the curve) (human alpha2-Antiplasmin [16]): ~8 nM
